Experimental data: US20130039936A1 (published 2013)

Molecular target: T1, HLA-A2 molecule on T2 cells (human)
T1 construct: also called HLA-A2.1; HLA-A2 molecules
Experiment: T2 binding assay, FI0.5 against wild type POTE 252
Protocol: (§1) Peptide binding capacity to the HLA-A2 molecule was measured by using the T2 cell line according to a protocol described previously (Peters et al., Bioinformatics 19(14):1765-1772, 2003). […] Cells were washed once with cold HBSS containing 0.1% BSA and incubated for 30 minutes at 4° C. with anti-HLA-A2.1 BB7.2 monoclonal antibody (1:40 dilution from hybridoma supernatant). After washing, cells were stained with FITC-labeled goat anti-mouse immunoglobulin (BD, San Jose, Calif.), and the level of HLA expression was measured by flow cytometry. HLA-A2 expression was quantified as fluorescence index (FI) according to the following formula: FI=[(geometric mean fluorescence intensity with peptide-geometric mean fluorescence intensity without peptide)/geometric mean fluorescence intensity without peptide]. Background fluorescence without BB7.2 was subtracted for each individual value. To compare the different peptides, FI_{0.5}, the peptide concentration that increases HLA-A2.1 expression by 50% over no peptide control background, was calculated from the titration curve for each peptide.

fold lower FI0.5 than POTE 252 [fold]	Binder
~2	YLMAKALLL [POTE 252-1Y]
~2	KLMAKALLV [POTE 252-9V]

Molecular target: T1, HLA-A2 molecule on T2 cells
Experiment: T2 binding assay, FI0.5 against wild type POTE 323
Protocol: as §1

fold better FI0.5 than wild-type POTE 323 [fold]	Binder
~3	LLFEQNVDV [POTE 323-3F]

Molecular target: T1, HLA-A2 molecule on T2 cells
Experiment: T2 binding assay (flow cytometry, BB7.2 anti-HLA-A2 stain of peptide-loaded T2 cells)
Protocol: as §1, with “peptide. […]” for “peptide.”

FI0.5 [µM]	Binder
2.6	KILEEIESV [POTE 553-561]
0.024	YILEEIESV [POTE 553-1Y]
0.3	KIFEEIESV [POTE 553-3F]
0.2	KILEEIASV [POTE 553-7A]
0.1	KLLEEIESV [POTE 553-2L]
0.3	LLLEQNVDV [POTE 323-331]
0.25	YLLEQNVDV [POTE 323-1Y]
2.78	LLLEQNADV [POTE 323-7A]
0.4	LLAEQNVDV [POTE 323-3A]
0.09	LLFEQNVDV [POTE 323-3F]
1.5	KLMAKALLL [POTE 252-260]
0.9	YLMAKALLL [POTE 252-1Y]
4	KLMAKAALL [POTE 252-7A]
16.9	KLAAKALLL [POTE 252-3A]
1.5	KLFAKALLL [POTE 252-3F]
0.8	KLMAKALLV [POTE 252-9V]

Molecular target: T1, HLA-A2 molecule on T2 cells
Experiment: as above
Remark: another data set of the same source
Protocol: Background fluorescence without BB7.2 was subtracted for each individual value. To compare the different peptides, FI_{0.5} (the peptide concentration that increases HLA-A2.1 expression by 50% over no peptide control background) was calculated from the titration curve for each peptide. […] Each assay was performed in triplicate, and data in this figure are representative of two experiments with similar results.
as §1
The binding affinity of the predicted peptides with HLA-A2 molecules was measured by the T2 binding assay.

FI0.5 [µM]	Binder
5.6	KILEEIESV [POTE 553-561]
0.8	LLLEQNVDV [POTE 323-331]
1.6	KLMAKALLL [POTE 252-260]
0.9	GLTPLLLGV [POTE 272-280]
